Measurements taken from patent US20240069033A1, “METHOD FOR SCREENING FOR CANDIDATE MOLECULE CAPABLE OF FORMING COMPLEX IN CONJUNCTION WITH PLURALITY OF TARGET MOLECULES” (Chugai Seiyaku Kabushiki Kaisha, priority 2020, published 2024).

Columns and labels:
[1] = Complementation assay of splitSNAP-tag using mRNA display (reaction with SNAP-Biotin, streptavidin pull-down, qPCR); format: biochemical; conditions: for Recovery rate (%): apparent recovery rate corrected with display efficiency; for Recovered nucleic acid amount (molecules): reaction with SNAP-Biotin 37° C. 30 minutes, streptavidin pull-down, qPCR; for Apparent recovery rate (%): recovered / theoretical value of added nucleic acid amount
Description: To this solution, ¼ amount of a PBS solution containing 5 mM DTT, 2500 nM SNAP-Biotin (New England BioLabs, Inc.) was added, and the enzymatic reaction was performed at 37° C. for 30 minutes.

[2] = test system: anti-ubiquitin antibody fixed bead; assay: Complementation assay of splitUbiquitin with Kpep/Epep charged peptides using mRNA display; format: binding; conditions: for Recovered nucleic acid amount (molecules): Display molecules 0.2 μM each (pairs) or 0.4 μM (alone), anti-ubiquitin antibody beads, qPCR; for Recovery rate (%): apparent recovery rate corrected with display efficiency; for Apparent recovery rate (%): recovered/input nucleic acid amount
Description: Next, Display molecules composed of constructs (SEQ ID NO: 55 (P-11) to SEQ ID NO: 57 (P-13)) in which splitUb(N) and splitUb(C) each were added with a charged peptide sequence (K-peptide containing an amino acid having a positive charge) (sometimes referred to as “Kpep”) or E-peptide containing an amino acid having a negative charge (“Epep”)) were prepared. When the added peptides are attracted to each other by charges, splitUbs become in proximity to each other and recovered by an anti-ubiquitin antibody. Conversely, when the added peptides are repelled to each other by charges, splitUbs are not recovered. Once this is validated, the complexation of molecules added to splitUbs can be evaluated with the recovery rate through ubiquitin and anti-ubiquitin antibodies.
Reactions were made under the same conditions as in condition 1, except that, in condition 2, the Display molecule of Epep-splitUb(N) and the Display molecule of Epep-splitUb(C) were added at 0.2 μM; in condition 3, the Display molecule of Kpep-splitUb(N) was added at 0.4 μM; in condition 4, the Display molecule of Epep-splitUb(N) was added at 0.4 μM; and in condition 5, the Display molecule of Epep-splitUb(C) was added at 0.4 μM.

B1: SNAP(full): mRNA Display molecule of full-length SNAP tag with C-terminal GS linker (SEQ ID NO: 44) (conjugate)
chain: MDKDCEMKRTTLDSPLGKLELSGCEQGLHRIIFLGKGTSAADAVEVPAPAAVLGGPEPLMQATAWLNAYFHQPEAIEEFPVPALHHPVFQQESFTRQVLWKLLKVVKFGEVISYSHLAALAGNPAATAAVKTALSGNPVPILIPCHRVVQGDLDVGGYEGGLAVKEWLLAHEGHRLGKPGLGPAGGSAFKLEVNGSGSGSGSGSKK
modifications: mRNA display linkage; SNAP (full)-GS5
- Recovery rate (%) [1]: 14.364%
- recovery rate higher than other controls ([1]; in the presence of SNAP-Biotin): at least 50 times
- Recovered nucleic acid amount (molecules) [1]: 4.78E+09 molecules
- Apparent recovery rate (%) [1]: 4.740%

B2: Epep-splitUb (N): mRNA Display molecule of splitUb(N) with negatively charged E-peptide (SEQ ID NO: 56) (conjugate)
chain: MKVSALENEVSALEKEVSVLEKEVSALEKEVRALEKGSGSGSGSMQIFVKTLTGKTATLEVEPSDTIENVKAKIQDKEGIPGSGSGSGSKK
modifications: mRNA display linkage; Epep-splitUb(N)-GS4
- Recovered nucleic acid amount (molecules) [2]: 3.77E+05 molecules
- Recovery rate (%) [2]: 0.0004%
- Apparent recovery rate (%) [2]: 0.0001%

B3: SNAP(N): mRNA Display molecule of SNAP tag N-terminal fragment with C-terminal GS linker (SEQ ID NO: 42) (conjugate)
chain: MDKDCEMKRTTLDSPLGKLELSGCEQGLHRIIFLGKGTSAADAVEVPAPAAVLGGPEPLMQATAWLNAYFHQPEAIEEFPVPALHHPVFQQGSGSGSGSGSKK
modifications: mRNA display linkage; splitSNAP (N)-GS5
- Recovery rate (%) [1]: 0.097%
- Recovered nucleic acid amount (molecules) [1]: 6.26E+07 molecules
- Apparent recovery rate (%) [1]: 0.062%

B4: SNAP(C): mRNA Display molecule of SNAP tag C-terminal fragment with C-terminal GS linker (SEQ ID NO: 43) (conjugate)
chain: MVDESFTRQVLWKLLKVVKFGEVISYSHLAALAGNPAATAAVKTALSGNPVPILIPCHRVVQGDLDVGGYEGGLAVKEWLLAHEGHRLGKPGLGPAGGSAFKLEVNGSGSGSGSGSKK
modifications: mRNA display linkage; SNAP (C)-GS5
- Recovery rate (%) [1]: 0.035%
- Recovered nucleic acid amount (molecules) [1]: 6.76E+06 molecules
- Apparent recovery rate (%) [1]: 0.007%

B5: Kpep-splitUb (N): mRNA Display molecule of splitUb(N) with positively charged K-peptide (SEQ ID NO: 55) (conjugate)
chain: MKVSALKENVSALKEKVSALTEKVSALKEKVSALKEGSGSGSGSMQIFVKTLTGKTATLEVEPSDTIENVKAKIQDKEGIPGSGSGSGSKK
modifications: mRNA display linkage; Kpep-splitUb(N)-GS4
- Recovered nucleic acid amount (molecules) [2]: 2.28E+06 molecules
- Recovery rate (%) [2]: 0.0008%
- Apparent recovery rate (%) [2]: 0.0005%
